Consider 4 substances from PMC9710096.

What all share (assay): SEC
In general terms: Size exclusion chromatography separates by hydrodynamic size, large species first.

In assay [1] the target is SARS-CoV-2 Beta Spike protein (B.1.351), tagless (SARS-CoV-2 | bacteriophage T4 (from the name T4 fibritin)) (UniProt P0DTC2).
For assay [2], the target named is SARS-CoV-2 D614G Spike protein, tagless (SARS-CoV-2 | bacteriophage T4 (from the name T4 fibritin)) (UniProt P0DTC2).
For assay [3], the target named is SARS-CoV-2 Delta Spike protein (B.1.617.2), tagless (SARS-CoV-2 | bacteriophage T4 (from the name T4 fibritin)) (UniProt P0DTC2).
In assay [4] the target is SARS-CoV-2 Gamma Spike protein (P.1), tagless (SARS-CoV-2 | bacteriophage T4 (from the name T4 fibritin)) (UniProt P0DTC2).

On to “SARS-CoV-2 Beta Spike protein (B.1.351), tagless (from UniProt P0DTC2 1-1208) (natural protein)”, for which the stoichiometry N (in general, a count of units in the complex or per binding partner) in assay [1] worked out at 3. “SARS-CoV-2 D614G Spike protein, tagless (from UniProt P0DTC2 1-1208) (natural protein)” came in with a stoichiometry N in assay [2] of 3. In assay [3], “SARS-CoV-2 Delta Spike protein (B.1.617.2), tagless (from UniProt P0DTC2 1-1208) (natural protein)” yielded a stoichiometry N of 3. Regarding “SARS-CoV-2 Gamma Spike protein (P.1), tagless (from UniProt P0DTC2 1-1208) (natural protein)”, the stoichiometry N in assay [4] worked out at 3.
